The record followed here is paper PMC7721647, “The Human RNA Helicase DDX21 Presents a Dimerization Interface Necessary for Helicase Activity” (iScience, 2020).

One data set deals with T1, DDX21ΔN (human, UniProt Q9NR30 186-783).
T1 sequence: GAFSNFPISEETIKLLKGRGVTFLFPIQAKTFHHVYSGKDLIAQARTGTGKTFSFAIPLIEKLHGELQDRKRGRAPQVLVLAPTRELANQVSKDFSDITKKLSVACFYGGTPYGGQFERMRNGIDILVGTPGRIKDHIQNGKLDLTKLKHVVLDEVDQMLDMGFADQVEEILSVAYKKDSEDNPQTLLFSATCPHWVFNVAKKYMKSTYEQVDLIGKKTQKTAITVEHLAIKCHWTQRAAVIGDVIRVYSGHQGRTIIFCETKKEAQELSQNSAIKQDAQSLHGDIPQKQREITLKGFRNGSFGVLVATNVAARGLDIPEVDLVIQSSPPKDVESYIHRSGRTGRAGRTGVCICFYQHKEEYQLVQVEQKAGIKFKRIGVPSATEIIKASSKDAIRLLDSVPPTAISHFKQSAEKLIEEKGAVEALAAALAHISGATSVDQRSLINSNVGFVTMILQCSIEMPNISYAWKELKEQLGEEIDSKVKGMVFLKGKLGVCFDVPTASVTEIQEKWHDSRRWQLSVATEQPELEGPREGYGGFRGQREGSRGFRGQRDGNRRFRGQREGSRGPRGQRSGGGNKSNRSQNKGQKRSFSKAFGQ
Nature of the data set: fluorescence polarization; 50 mM KCl; FP: 50 mM Tris pH 7.5, 50 mM KCl, 5 mM MgCl2, no ATP; Hill-slope fit; temperature not given in the material. The conditions noted are these: protein: recombinant; chain copies: 2; label: 5'-FAM; G4. On the technique in general: In fluorescence polarisation assays a small probe gives low polarisation when free and higher when bound to something large.

The next data set has as its target T2, DDX21Core-DD (human, UniProt Q9NR30 186-620).
T2 sequence: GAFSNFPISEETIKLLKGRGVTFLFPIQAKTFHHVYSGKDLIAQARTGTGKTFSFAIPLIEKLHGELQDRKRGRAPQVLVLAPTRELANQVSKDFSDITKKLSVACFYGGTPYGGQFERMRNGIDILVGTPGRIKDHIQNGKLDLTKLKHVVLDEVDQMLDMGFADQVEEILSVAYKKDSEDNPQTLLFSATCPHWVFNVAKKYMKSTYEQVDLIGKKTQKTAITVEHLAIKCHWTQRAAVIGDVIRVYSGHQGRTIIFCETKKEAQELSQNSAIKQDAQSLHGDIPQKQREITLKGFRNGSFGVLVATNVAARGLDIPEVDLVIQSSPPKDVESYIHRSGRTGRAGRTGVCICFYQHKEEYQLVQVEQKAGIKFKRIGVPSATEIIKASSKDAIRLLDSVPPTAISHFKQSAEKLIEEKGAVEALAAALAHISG
Described as above. To be noted: protein: recombinant; tags: C-terminal His6, uncleavable; chain copies: 2; label: 5'-FAM; G4.

The target in the next data set is T3, DDX21Fl (human, UniProt Q9NR30 1-783).
T3 sequence: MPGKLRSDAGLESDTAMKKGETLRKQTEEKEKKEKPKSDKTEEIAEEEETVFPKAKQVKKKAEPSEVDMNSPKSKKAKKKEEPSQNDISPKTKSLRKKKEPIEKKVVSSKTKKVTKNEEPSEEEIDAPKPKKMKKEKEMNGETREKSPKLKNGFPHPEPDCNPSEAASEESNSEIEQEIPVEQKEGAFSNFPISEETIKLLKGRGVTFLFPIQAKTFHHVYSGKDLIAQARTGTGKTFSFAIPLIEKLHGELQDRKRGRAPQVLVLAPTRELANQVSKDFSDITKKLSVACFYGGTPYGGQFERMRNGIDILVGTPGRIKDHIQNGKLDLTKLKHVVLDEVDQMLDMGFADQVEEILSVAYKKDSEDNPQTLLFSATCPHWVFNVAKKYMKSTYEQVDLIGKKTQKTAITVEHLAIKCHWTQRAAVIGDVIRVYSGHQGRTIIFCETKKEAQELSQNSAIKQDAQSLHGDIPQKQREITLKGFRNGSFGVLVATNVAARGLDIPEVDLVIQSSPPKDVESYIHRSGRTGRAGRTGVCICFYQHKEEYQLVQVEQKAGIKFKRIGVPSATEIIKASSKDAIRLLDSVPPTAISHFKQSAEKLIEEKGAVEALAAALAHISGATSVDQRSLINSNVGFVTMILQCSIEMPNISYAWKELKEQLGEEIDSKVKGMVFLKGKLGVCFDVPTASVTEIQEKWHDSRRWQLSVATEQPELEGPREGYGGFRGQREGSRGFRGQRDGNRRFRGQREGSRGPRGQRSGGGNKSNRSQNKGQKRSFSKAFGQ
Nature of the data set: fluorescence polarization; no ATP; 50 mM KCl; FP: 50 mM Tris pH 7.5, 50 mM KCl, 5 mM MgCl2, no ATP; Hill-slope fit; temperature not given in the material. To be noted: protein: recombinant; tags: N-terminal Trx-His6, cut with thrombin; chain copies: 2; label: 5'-FAM; G4.

The target in another data set is T4, DDX21ΔNC (human, UniProt Q9NR30 186-710).
T4 sequence: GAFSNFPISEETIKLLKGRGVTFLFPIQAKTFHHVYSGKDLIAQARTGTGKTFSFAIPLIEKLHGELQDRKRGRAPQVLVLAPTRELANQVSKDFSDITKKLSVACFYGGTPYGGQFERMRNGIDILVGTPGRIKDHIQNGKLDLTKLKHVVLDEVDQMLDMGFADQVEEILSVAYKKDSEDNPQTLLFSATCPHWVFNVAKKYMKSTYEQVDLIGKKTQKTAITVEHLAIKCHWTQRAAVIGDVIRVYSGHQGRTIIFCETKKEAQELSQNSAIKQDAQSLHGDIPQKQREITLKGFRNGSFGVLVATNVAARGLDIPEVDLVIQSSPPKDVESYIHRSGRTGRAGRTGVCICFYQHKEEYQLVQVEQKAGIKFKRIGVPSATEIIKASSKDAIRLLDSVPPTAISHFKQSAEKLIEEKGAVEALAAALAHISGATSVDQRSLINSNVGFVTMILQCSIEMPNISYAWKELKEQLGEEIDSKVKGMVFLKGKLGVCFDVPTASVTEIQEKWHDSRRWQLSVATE
Nature of the data set: fluorescence polarization; 50 mM KCl (Table S2 prints 36.7); FP: 50 mM Tris pH 7.5, 50 mM KCl, 5 mM MgCl2, no ATP; Hill-slope fit; temperature not given in the material. To be noted: protein: recombinant; chain copies: 2; label: 5'-FAM; G4.

The Kd is the concentration at which binding is half-saturated. In the case of GUUGGGGCGGGCGUUGGGUUUGGGGGGACG (structured_RNA) [Q2 RNA G-quadruplex], the Kd with DDX21ΔN was found to be 7.6 ± 0.5 nM; with DDX21Core-DD, 23.1 ± 3.2 nM; with DDX21Fl, 2.6 ± 0.1 nM; with DDX21ΔNC it was 36.5 ± 2.7 nM.
